Source: patent US20200148732A1 (UNIVERSITY OF COPENHAGEN, published 2020)
Substitutions are numbered along the chain they refer to.

How the values were obtained:
[1] = molecular target: T1, GFP-TONSL D604A (Homo sapiens, UniProt Q96HA7 1-1378); test: GFP immunoprecipitation of GFP-TONSL from transfected HeLa S3 cells, western blot (co-IP; association may be indirect)
T1 construct: also called TONSL D604A / GFP; not shown: N-terminal GFP tag
T1 sequence: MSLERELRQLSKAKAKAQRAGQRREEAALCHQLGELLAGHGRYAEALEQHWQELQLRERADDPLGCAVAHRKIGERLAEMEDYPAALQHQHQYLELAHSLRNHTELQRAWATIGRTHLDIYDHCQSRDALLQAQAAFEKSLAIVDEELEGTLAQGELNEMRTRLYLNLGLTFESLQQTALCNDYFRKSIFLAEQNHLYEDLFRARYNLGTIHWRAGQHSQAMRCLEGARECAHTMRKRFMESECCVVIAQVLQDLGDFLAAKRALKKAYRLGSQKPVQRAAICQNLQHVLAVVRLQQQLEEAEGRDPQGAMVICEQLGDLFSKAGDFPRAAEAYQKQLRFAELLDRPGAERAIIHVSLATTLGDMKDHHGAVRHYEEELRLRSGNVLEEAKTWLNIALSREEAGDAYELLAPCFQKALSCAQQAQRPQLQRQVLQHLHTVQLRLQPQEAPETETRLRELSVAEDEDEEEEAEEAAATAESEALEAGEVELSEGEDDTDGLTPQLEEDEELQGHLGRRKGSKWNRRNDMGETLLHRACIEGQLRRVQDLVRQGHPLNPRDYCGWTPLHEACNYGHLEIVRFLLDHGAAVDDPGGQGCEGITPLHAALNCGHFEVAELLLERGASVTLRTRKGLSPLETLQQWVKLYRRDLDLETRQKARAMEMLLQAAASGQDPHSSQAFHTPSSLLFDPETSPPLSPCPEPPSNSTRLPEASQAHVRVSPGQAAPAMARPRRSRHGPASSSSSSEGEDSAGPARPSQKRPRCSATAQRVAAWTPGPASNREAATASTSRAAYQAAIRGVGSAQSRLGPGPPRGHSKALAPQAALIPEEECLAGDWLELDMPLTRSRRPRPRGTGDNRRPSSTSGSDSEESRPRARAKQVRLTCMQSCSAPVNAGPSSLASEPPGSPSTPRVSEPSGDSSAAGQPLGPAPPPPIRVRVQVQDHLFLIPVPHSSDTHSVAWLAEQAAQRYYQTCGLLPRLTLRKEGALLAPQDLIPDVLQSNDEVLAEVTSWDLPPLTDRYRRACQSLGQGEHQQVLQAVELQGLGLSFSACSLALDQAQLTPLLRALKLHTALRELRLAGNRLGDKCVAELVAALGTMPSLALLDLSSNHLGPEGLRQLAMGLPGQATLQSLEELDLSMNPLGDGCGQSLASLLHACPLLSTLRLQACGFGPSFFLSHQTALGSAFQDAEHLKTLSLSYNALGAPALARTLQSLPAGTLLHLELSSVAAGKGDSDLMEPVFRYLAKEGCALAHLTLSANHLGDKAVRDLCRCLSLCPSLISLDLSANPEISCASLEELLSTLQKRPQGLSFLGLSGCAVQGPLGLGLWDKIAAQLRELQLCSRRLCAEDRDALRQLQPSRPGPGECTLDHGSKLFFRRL

[2] = molecular target: T2, GFP-TONSL D559A (Homo sapiens, UniProt Q96HA7 1-1378); test: as above
T2 construct: also called TONSL D559A / GFP; not shown: N-terminal GFP tag
T2 sequence: T1 sequence with D559A, A604D

binding result [1]: binds
binding result [2]: binds
B1: MMS22L (endogenous, in cell extracts) (other, UniProt Q6ZRQ5 1-1243, looked up)
chain: MENCSAASTFLTDSLELELGTEWCKPPYFSCAVDNRGGGKHFSGESYLCSGALKRLILNLDPLPTNFEEDTLEIFGIQWVTETALVNSSRELFHLFRQQLYNLETLLQSSCDFGKVSTLHCKADNIRQQCVLFLHYVKVFIFRYLKVQNAESHVPVHPYEALEAQLPSVLIDELHGLLLYIGHLSELPSVNIGAFVNQNQIKLFPPSWHLLHLHLDIHWLVLEILYMLGEKLKQVVYGHQFMNLASDNLTNISLFEEHCETLLCDLISLSLNRYDKVRSSESLMSDQCPCLCIKELWVLLIHLLDHRSKWFVSESFWNWLNKLLKTLLEKSSDRRRSSMPVIQSRDPLGFSWWIITHVASFYKFDRHGVPDEMRKVESNWNFVEELLKKSISVQGVILEEQLRMYLHCCLTLCDFWEPNIAIVTILWEYYSKNLNSSFSISWLPFKGLANTMKSPLSMLEMVKTCCCDKQDQELYKSSSSYTIFLCILAKVVKKAMKSNGPHPWKQVKGRIYSKFHQKRMEELTEVGLQNFFSLFLLLAAVAEVEDVASHVLDLLNFLKPAFVTSQRALIWKGHMAFLLMYAQKNLDIGVLAEKFSCAFREKAKEFLVSKNEEMVQRQTIWTLLSIYIDGVQEVFETSYCLYPSHEKLLNDGFSMLLRACRESELRTVLSFLQAVLARIRSMHQQLCQELQRDNVDLFVQSSLSAKERHLAAVASALWRHFFSFLKSQRMSQVVPFSQLADAAADFTLLAMDMPSTAPSDFQPQPVISIIQLFGWDDIICPQVVARYLSHVLQNSTLCEALSHSGYVSFQALTVRSWIRCVLQMYIKNLSGPDDLLIDKNLEEAVEKEYMKQLVKLTRLLFNLSEVKSIFSKAQVEYLSISEDPKKALVRFFEAVGVTYGNVQTLSDKSAMVTKSLEYLGEVLKYIKPYLGKKVFSAGLQLTYGMMGILVKSWAQIFATSKAQKLLFRIIDCLLLPHAVLQQEKELPAPMLSAIQKSLPLYLQGMCIVCCQSQNPNAYLNQLLGNVIEQYIGRFLPASPYVSDLGQHPVLLALRNTATIPPISSLKKCIVQVIRKSYLEYKGSSPPPRLASILAFILQLFKETNTDIYEVELLLPGILKCLVLVSEPQVKRLATENLQYMVKACQVGSEEEPSSQLTSVFRQFIQDYGMRYYYQVYSILETVATLDQQVVIHLISTLTQSLKDSEQKWGLGRNIAQREAYSKLLSHLGQMGQDEMQRLENDNT
